Results published in article PMC10249358 (2023).
No end group written: not given here. *: point of attachment. FITC = O=C1OC2(c3ccc(O)cc3Oc3cc(O)ccc32)c2ccc(NC(=S)*)cc21

T1: radixin FERM domain (as used in FP) (human, UniProt P35241 5-295)
T1 chain: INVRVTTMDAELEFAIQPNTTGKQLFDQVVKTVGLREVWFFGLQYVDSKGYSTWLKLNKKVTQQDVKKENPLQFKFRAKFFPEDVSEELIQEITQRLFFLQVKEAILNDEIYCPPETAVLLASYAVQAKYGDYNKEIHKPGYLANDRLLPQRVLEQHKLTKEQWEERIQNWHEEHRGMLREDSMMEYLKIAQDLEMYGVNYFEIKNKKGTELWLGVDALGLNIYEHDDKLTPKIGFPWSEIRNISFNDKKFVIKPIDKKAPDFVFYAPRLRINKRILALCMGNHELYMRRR

T2: merlin FERM domain (human, UniProt P35240 22-312)
T2 chain: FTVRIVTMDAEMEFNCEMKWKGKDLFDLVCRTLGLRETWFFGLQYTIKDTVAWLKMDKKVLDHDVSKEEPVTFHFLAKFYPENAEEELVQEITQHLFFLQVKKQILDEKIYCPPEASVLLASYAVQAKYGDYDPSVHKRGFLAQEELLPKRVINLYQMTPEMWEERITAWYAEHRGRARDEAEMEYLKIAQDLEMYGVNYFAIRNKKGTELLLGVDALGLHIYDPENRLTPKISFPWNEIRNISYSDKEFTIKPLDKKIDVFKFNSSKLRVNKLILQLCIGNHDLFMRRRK


Target: T3, moesin FERM domain (UniProt P26038 2-295)
Assay: FP

In the case of LEFADFYDFRSSYPDH [ZNF622(341–356) peptide, unlabeled], the Kd is reported as 1400 nM.

Target: T1, radixin FERM domain (as used in FP)
Assay: FP

Point of comparison: FYDLWASDNPLDRPLV (also: FITC label, position not given here) [FITC-NOP53(192–207) peptide], Kd 3500 nM. Against it:
- {FITC}-THHKALQEIRNSLLPF [FITC-LATS1(73–88) peptide] — 2.1-fold lower, 1700 nM
- {FITC}-WSKKNELFSNL [FITC-EBP50(348–358) peptide] — within 1.5-fold, 3200 nM
- {FITC}-LEFADFYDFRSSYPDH [FITC-ZNF622(341–356) peptide] — within 1.5-fold, 2500 nM
- SYSVQTMETVPYQPFP (also: FITC label, position not given here) [FITC-TBX4(428–443) peptide] — within 1.5-fold, 4600 nM
- {FITC}-YYSVNTFKEHHSTPTI [FITC-KIRREL3(637–652) peptide] — 2.5-fold lower, 1400 nM

Target: T3, moesin FERM domain
Assay: FP
Remark: another data set of the same source

Point of comparison: {FITC}-WSKKNELFSNL [FITC-EBP50(348–358) peptide], Kd 3000 nM. Against it:
- FYDLWASDNPLDRPLV (also: FITC label, position not given here) [FITC-NOP53(192–207) peptide] — 4.2-fold lower, 710 nM
- {FITC}-THHKALQEIRNSLLPF [FITC-LATS1(73–88) peptide] — 3-fold lower, 1000 nM
- {FITC}-LEFADFYDFRSSYPDH [FITC-ZNF622(341–356) peptide] — 3-fold lower, 1000 nM
- SYSVQTMETVPYQPFP (also: FITC label, position not given here) [FITC-TBX4(428–443) peptide] — 4-fold lower, 750 nM
- {FITC}-YYSVNTFKEHHSTPTI [FITC-KIRREL3(637–652) peptide] — 38-fold lower, 80 nM

Target: ezrin FERM domain (as used in FP) (UniProt P15311 2-296)
Assay: FP

Sequence of ezrin FERM domain (as used in FP) (P15311 2-296): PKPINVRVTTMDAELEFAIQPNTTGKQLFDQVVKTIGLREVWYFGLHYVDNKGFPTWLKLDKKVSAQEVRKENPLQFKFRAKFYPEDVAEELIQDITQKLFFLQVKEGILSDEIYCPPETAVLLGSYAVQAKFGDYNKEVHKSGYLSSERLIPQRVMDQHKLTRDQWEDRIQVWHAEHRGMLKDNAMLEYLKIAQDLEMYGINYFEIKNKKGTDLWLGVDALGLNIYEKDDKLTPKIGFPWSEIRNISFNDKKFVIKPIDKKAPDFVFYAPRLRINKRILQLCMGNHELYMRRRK

Point of comparison: {FITC}-YYSVNTFKEHHSTPTI [FITC-KIRREL3(637–652) peptide], Kd 1400 nM. Against it:
- FYDLWASDNPLDRPLV (also: FITC label, position not given here) [FITC-NOP53(192–207) peptide] — 1.7-fold higher, 2400 nM
- {FITC}-THHKALQEIRNSLLPF [FITC-LATS1(73–88) peptide] — within 1.5-fold, 1200 nM
- {FITC}-WSKKNELFSNL [FITC-EBP50(348–358) peptide] — 2.3-fold higher, 3200 nM
- {FITC}-LEFADFYDFRSSYPDH [FITC-ZNF622(341–356) peptide] — within 1.5-fold, 1600 nM
- SYSVQTMETVPYQPFP (also: FITC label, position not given here) [FITC-TBX4(428–443) peptide] — 3.2-fold higher, 4500 nM

Target: T2, merlin FERM domain
Assay: FP

Point of comparison: {FITC}-WSKKNELFSNL [FITC-EBP50(348–358) peptide], Kd 1800 nM. Against it:
- FYDLWASDNPLDRPLV (also: FITC label, position not given here) [FITC-NOP53(192–207) peptide] — 9.4-fold higher, 17000 nM
- {FITC}-THHKALQEIRNSLLPF [FITC-LATS1(73–88) peptide] — 4.7-fold higher, 8500 nM
- {FITC}-LEFADFYDFRSSYPDH [FITC-ZNF622(341–356) peptide] — 2.3-fold higher, 4100 nM

Target: T3, moesin FERM domain
Assay: FP
Remark: another data set of the same source

Point of comparison: TNGYYSVNTFKEHHSTPTI [KIRREL3(634–652) peptide, unlabeled, N-terminally extended], Kd 120 nM. Against it:
- YYSVNTFKEHHSTPTI [KIRREL3(637–652) peptide, unlabeled] — within 1.5-fold, 90 nM
- SYSVQTMETVPYQPFP [TBX4(428–443) peptide, unlabeled] — 8.3-fold higher, 1000 nM
- PYTSYSVQTMETVPYQPFP [TBX4 peptide extended N-terminally with PYT] — 27-fold higher, 3200 nM
